Consider 1 compound from PMC11488100, “PET imaging of CXCR4 expression using [^18F]AlF-NOTA-QHY-04 for hematologic malignancy and solid tumors” (Theranostics, 2024).

Bridge positions count the residues as written; N and C are the ends. Square brackets hold non-standard residues; d marks the D form. Peptide text beside a SMILES is read from it. * marks the point of attachment. NOTA = O=C(O)CN1CCN(CC(=O)O)CCN(CC(=O)*)CC1; 2Nal = N[C@@H](Cc1ccc2ccccc2c1)C(=O)O; Pen = CC(C)(S)[C@H](N)C(=O)O; 4Amb = NCc1ccc(C(=O)O)cc1; Ahx = NCCCCCC(=O)O

One data set concerns the target T1, CXCR4 expression (Homo sapiens, UniProt P61073).
T1 construct: from tissue; host or cells: tumour lesions in cancer patients (DLBCL, SCLC, NSCLC, TNBC, pancreatic carcinoma, glioma, HCC, CRC), in vivo
The note with it: in vivo. An excerpt: Potential eligible patients with newly diagnosed tumor were recruited from Shandong Cancer Hospital and institute from November 2022 to December 2023. A total of 55 patients including 8 tumor types were represented in this study (diffuse large B-cell lymphoma (DLBCL), n = 6; SCLC, n = 30; non-small cell lung cancer (NSCLC), n = 4; triple-negative breast cancer (TNBC), n = 3; pancreatic carcinoma, n = 3; glioma, n = 7; hepatocellular carcinoma (HCC), n = 1; and colorectal carcinoma (CRC), n = 1). The [^18F]AlF-NOTA-QHY-04 imaging study in patients was approved by the Institutional Review Board of Shandong Cancer Hospital and Institute (no. SDZLEC2023-256-02), and the patients provided their informed consent before inclusion in this study. In this prospective observational study, [^18F]AlF-NOTA-QHY-04 PET/CT scans should not affect the normal process of routine examinations and treatment as usual. Patients were enrolled according to the following criteria: (1) newly diagnosed cancer patients with visible tumors on conventional imaging; (2) histopathologically confirmed diagnosis; (3) age ≥ 18 years; (4) Eastern Cooperative Oncology Group (ECOG) performance status score of 0-2; (5) no prior cancer-directed therapy; (6) ability to undergo [^18F]AlF-NOTA-QHY-04 PET/CT scanning before treatment initiation. Specifically, regarding histological confirmation, we followed the standard clinical practice guidelines for each type of cancer [21]-[26], and provided detailed descriptions of our approach for obtaining histological evidence in the supplemental materials. […]
NaOH. Finally, the cell lysates were collected and measured by an automatic gamma counter (2470 Wizard2, PerkinElmer). […]
The tumor-bearing mice were injected with 3.70 ± 0.74 MBq of [18F]AlF-NOTA-QHY-04 in about 150 μL saline via the tail vein. […] The PET/CT images were analyzed using OsiriX MD software (Pixmeo SARL, Geneva, Switzerland), and the regions of interest (ROIs) were drawn along the boundary covering the whole tumor volume for quantification of the radioactivity (expressed as %ID/mL). […]

The conditions of data set [1]: in vivo; cited from earlier work. An excerpt: (Figure 3A and 3B). In contrast, the blood, heart, liver, ...

T1 sequence (P61073 whole entry): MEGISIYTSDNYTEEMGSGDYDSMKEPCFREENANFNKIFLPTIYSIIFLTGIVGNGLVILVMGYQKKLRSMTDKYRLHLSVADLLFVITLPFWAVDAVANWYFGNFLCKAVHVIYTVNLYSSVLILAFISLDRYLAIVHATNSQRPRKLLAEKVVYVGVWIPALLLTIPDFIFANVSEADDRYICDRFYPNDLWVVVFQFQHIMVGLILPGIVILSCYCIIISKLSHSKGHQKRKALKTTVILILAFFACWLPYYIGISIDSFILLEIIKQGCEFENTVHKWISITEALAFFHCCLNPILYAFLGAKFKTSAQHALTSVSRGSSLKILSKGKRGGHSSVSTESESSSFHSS

Regarding `C[C@H](NC(=O)[C@H](CCCNC(=N)N)NC(=O)CCCCCNC(=O)c1ccc(CNC(=O)CN2CCN(CC(=O)O)CCN(CC(=O)O)CC2)cc1)C(=O)N[C@@H]1CSSC(C)(C)[C@@H](C(=O)O)NC(=O)[C@H](Cc2c[nH]cn2)NC(=O)[C@H](Cc2ccc3ccccc3c2)NC(=O)[C@H](CCCNC(=N)N)NC1=O` [[^18F]AlF-NOTA-QHY-04] ({NOTA-4Amb-Ahx}-RA[dC]R[2Nal]H[Pen]-OH; disulfide 3-7), in the data set with CXCR4 expression, the SUVmean was 7.52 ± 3.01, the “average SUVmax” value was 6.29 ± 2.85 and the “average T/N (tumor-to-normal brain ratio)” value came to 62.55 ± 43.24. Moreover, the acute radiotoxicity result in data set [1] is reported as “no acute radiotoxicity”.
